Assay [1] has as its target T1, RAGE-Fc (R&D Systems #1145-RG) (UniProt Q15109 23-344, limits assumed).
T1 construct: Bought reagent; not shown: Fc part of the bought fusion (detected with anti-human IgG HRP)
The experiment in a line: ELISA: biotinylated oxIL-33 on streptavidin plate, RAGE-Fc at 10 µg/mL, anti-human IgG HRP. As to the method: (§1) Plates were washed 3× with 200 μl PBS-T (PBS+1% (v/v) Tween-20) and blocked with 300 μl/well blocking buffer (PBS with 1% BSA (Sigma, A9576)) for 1 hour. […] Plates were washed with 200 μl PBS-T three times. […] Plates were washed 3× with PBS-T and developed with TMB, 100 μl/well (Sigma, T0440). The reaction was quenched with 50 μl/well 0.1M H₂SO₄. Absorbance was read at 450 nm on the Cytation Gen5 or similar equipment.

The target of assay [2] is T1, RAGE-Fc (R&D Systems #1145-RG). The experiment in a line: ELISA, FIG. 7A: biotinylated HMGB1 on streptavidin plate, RAGE-Fc. The procedure: as §1
Background: ELISA stands for enzyme-linked immunosorbent assay.

Assay [3] has as its target T2, EGFR-Fc (R&D Systems #344-ER-050) (UniProt P00533 25-645).
T2 construct: Bought reagent; not shown: Fc part of the bought fusion (detected with anti-human IgG HRP)
The experiment in a line: ELISA: biotinylated HMGB1 on streptavidin plate, EGFR-Fc with untagged RAGE (Sino Biological 11629-HCCH) at 10 µg/mL, anti-human IgG HRP. The procedure:
as §1

Assay [4] deals with T3, epidermal growth factor receptor (EGFR), endogenous in NHBE, DHBE and A549 cells (human, UniProt P00533 25-1210).
T3 construct: whole, on cells; Endogenous receptor; also called EGF Receptor
The experiment in a line: anti-EGFR (AF231) immunoprecipitation from NHBE lysate, LC-MS; cells stimulated with 30 ng/ml reduced IL-33-01 for 10 min; IL-33 not detected in complex with EGFR.

T1 sequence (Q15109 23-344 limits assumed): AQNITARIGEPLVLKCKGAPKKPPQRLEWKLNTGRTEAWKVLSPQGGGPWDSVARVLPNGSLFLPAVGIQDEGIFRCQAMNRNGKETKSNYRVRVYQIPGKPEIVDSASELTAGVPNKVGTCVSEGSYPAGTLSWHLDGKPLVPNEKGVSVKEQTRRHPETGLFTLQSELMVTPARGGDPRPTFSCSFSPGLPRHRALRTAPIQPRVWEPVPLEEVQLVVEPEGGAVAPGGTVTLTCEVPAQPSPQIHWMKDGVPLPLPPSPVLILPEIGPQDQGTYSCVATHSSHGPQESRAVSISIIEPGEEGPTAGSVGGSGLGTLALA

B1: Avitag_IL-33-01 (oxidised IL-33) (ligand)
chain: MHHHHHHHHHHAAGLNDIFEAQKIEWHEAAIEGRSITGISPITEYLASLSTYNDQSITFALEDESYEIYVEDLKKDEKKDKVLLSYYESQHPSNESGDGVDGKMLMVTLSPTKDFWLHANNKEHSVELHKCEKPLPDQAFFVLHNMHSNCVSFECKTDPGVFIGVKDNHLALIKVDSSENLCTENILFKLSET
modifications: biotinylated on the Avitag with BirA; oxidised (disulphide bonded) form
notes: also called oxIL-33; biotinylated oxidised N-terminal tagged His10/Avitag IL33-01
As for B1, in assay [1], the binding result is on record as “binds”.

B2: HMGB1 (R&D systems 1690-HMB-050), biotinylated (ligand, UniProt P09429 1-215, looked up)
chain: MGKGDPKKPRGKMSSYAFFVQTCREEHKKKHPDASVNFSEFSKKCSERWKTMSAKEKGKFEDMAKADKARYEREMKTYIPPKGETKKKFKDPNAPKRPPSAFFLFCSEYRPKIKGEHPGLSIGDVAKKLGEMWNNTAADDKQPYEKKAAKLKEKYEKDIAAYRAKGKPDAAKKGVVKAEKSKKKKEEEEDEEDEEDEEEEEDEEDEDEEEDDDDE
modifications: biotinylated via free amines (EZ link Sulfo-NHS-LC-Biotin)
notes: Immobilised on streptavidin plates in the ELISA of section 10; called a known RAGE ligand / bona fide RAGE agonist
Consider B2, for which the binding result was “binds” in assay [2] and “no binding (tested: 10 µg/mL)” in assay [3].

B3: Untagged IL33-01 (ligand)
chain: SITGISPITEYLASLSTYNDQSITFALEDESYEIYVEDLKKDEKKDKVLLSYYESQHPSNESGDGVDGKMLMVTLSPTKDFWLHANNKEHSVELHKCEKPLPDQAFFVLHNMHSNCVSFECKTDPGVFIGVKDNHLALIKVDSSENLCTENILFKLSET
notes: Reduced wild type form; also called reduced IL-33; WT IL-33
Consider B3, for which the binding result in assay [4] is recorded as “no binding”.

Values taken from US20220380450A1 (AstraZeneca / MedImmune, published 2022).
